Laboratory results published in patent US20030211587A1 (University of Texas, published 2003).

Biological target: the molecule itself
Test: native gel electrophoresis of purified His-tagged keptin (self-association)
Description: Analysis of His-tagged keptin recombinant protein. Crude proteins were extracted from E. Coli transformed with a bacterial expression vector encoding a secreted form of keptin tagged with 10× histidine residues at its N-terminus. The extracts were affinity purified with nickel resins and subjected to SDS-PAGE analysis under denatured conditions. […] The purified protein was also analyzed for its biochemical properties by native gel electrophoresis. Both keptin dimers and monomers were detected in the native gel. Leptin (MW: 14 kDa) was used as a reference for a monomer protein with similar molecular weight to His-Keptin (11.4 kDa).

B1: His-tagged keptin recombinant protein (human mature keptin with N-terminal 10x histidine, from pET-hKeptin in E. coli) (other, UniProt P60985 23-99, looked up)
chain: ATLGGPEEESTIENYASRPEAFNTPFLNIDKLRSAFKADEFLNWHALFESIKRKLPFLNWDAFPKLKGLRSATPDAQ
notes: mature; also called His-keptin; His-Keptin; not shown: N-terminal 10x histidine tag encoded by vector pET-16b
binding result: binds
